Data as given in patent publication US20040267001A1, “Genes encoding baeyer-villiger monooxygenases” (priority 2001, published 2004).

Assay: Conversion of cyclohexanone to caprolactone by E. coli clones expressing Rhodococcus erythropolis AN12 monooxygenases, GC-MS detection
Format: cell-based, Escherichia coli
Conditions: 500 mg/L cyclohexanone, 0.1 mM IPTG, overnight at 24° C., GC-MS of ethylacetate extract
Procedure: Following amplification, the gene fragments were cloned into pTrcHis-TOPO TA vectors with either an N-terminal tail or C-terminal tail, as provided by the vector sequence. These vectors were transformed into E. coli, with transformants grown in Luria-Bertani broth supplemented with ampicillin (100 ug/ml).
The chnB monooxygenase activity of each expressed enzyme from Example 9 was tested for activity according to its ability to convert cyclohexanone to caprolactone.
Clones containing the full length monooxygenase genes were transferred from LB agar plate to 5 mL of M63 minimal media (GIBCO) containing 10 mM glycerol, 50 ug/mL ampicillin, 0.1 mM IPTG, and 500 mg/L cyclohexanone. In addition to the clones containing full length monooxygenases, a plasmid without an insert and a “no cell” control were also assayed. The encoded monooxygenase sequences were expressed upon addition of IPTG to the culture media. The cultures were incubated overnight at room temperature (24° C.). Samples (1.25 mL) for analysis were taken immediately after inoculation and after overnight incubation; cells were removed by centrifugation (4° C., 13,000 rpm).
Caprolactone formed by the action of the cloned monooxygenase was extracted from the aqueous phase with ethylacetate (1.0 ml aqueous/0.5 mL ethylacetate). Caprolactone was detected by gas chromotagraphy mass spectrometry (GC-MS) analysis, using an Agilent 6890 Gas chromatograph system.
The analysis of the ethylacetate phase was performed by injecting 1 uL of the ethyl acetate phase into the GC. The inlet temperature was 115° C. and the column temperature profile was 50° C. for 4 min and ramped to 250° C. at 20° C./min, for a total run time of 14 min. The compounds were separated with an Hewlet Packard HP-5MS (5% phenyl Methyl Siloxane) column (30 m length, 250 um diameter, and 0.25 um film thickness). The mass spectrometer was run in Electron Ionization mode. The background mass spectra was subtracted from the spectra at the retention time of caprolactone (9.857 min). Presence of caprolactone was confirmed by comparison of the test reactions to an authentic standard obtained from Aldrich Chemical Company (St. Louis, Mo.).
Results of these assays are shown below in Table 7, in terms of the presence or absence of detectable caprolactone formation according to the activity of each expressed BV monooxygenase enzyme.

B1: ORF 15: Rhodococcus erythropolis AN12 ORF 15 chnB monooxygenase, protein SEQ ID NO:36, expressed in E. coli (protein)
chain: MTIVTDLDRDHLRSAVLRGNVPTMLAVLLELTADERWVAPRYQPTRSRGMDDNSTGGLPEEVQSEIRSALIDAVERWWTLDEPSRRTLDSSEVERILNFTCSETVPPDFAPMMAEIVNGPQIKPATAKCDERLHAIVIGAGIAGMLASVELSRAGIPHVILEKNDDVGGSWWENRYPGAGVDTPSHLYSISSFPRNWSTHFGKRDEVQGYLEDFAEANDIRRNVRFRHEVTRAEFEESKQSWRVSVQRPGEASETLEAPILISAVGLLNRPKIPHLPGIETFRGRLFHSAEWPSELDDPESLRGKRVGIVGTGASAMQIGPAIADRVGSLTIFQRSPQWIAPNDDYFTTIDDGVHWLMDNIPGYREWYRARLSWIFNDKVYSSLQVDPDWPEPSASINATNHGHRKFYERYLRDQLGDRTDLIEASLPDYPPFGKRMLLDNGWFTMLRKPDVTLVPHGVDALTPSGLVDTNGVEHQLDVIVMATGFHSVRVLYPMDIVGRSGRSTGEIWGEHDARAYLGITVPDFPNFFVMTGPNTGLGHGGSFITILECQVRYIMDALKLMQSENLGAMECRAEVNDRYNEAVDRQHAQMVWTHPAMENWYRNPDGRVVSVLPWRINDYWAMTYRVDPSDFRTEPARSESVPTPTARG
modifications: Rhodococcus erythropolis AN12
Question: Which “Formation of Caprolactone (ability to convert cyclohexanone to caprolactone)” value does the source give for B1 here?
Answer: Not Detected
